# Reference: paper PMC10929192, “Hypoxia-activated selectivity-improved anti-PKM2 antibody combined with prodrug TH-302 for potentiated targeting therapy in hepatocellular carcinoma” (International Journal of Biological Sciences, 2024)
# Assays:
# [1] = target: T1, human PKM2 Ag (M2 splice isoform of pyruvate kinase), purified (Homo sapiens, UniProt P14618); test: SPR; human PKM2 Ag (20 µg/mL, sodium acetate buffer, pH 5) on a CM5 chip; serial dilutions of the Abs injected at 20 μL/min, 120 s binding, 300 s dissociation; 1:1 kinetic binding model; Biacore T200; details: both partners purified
# T1 construct: M2 splice isoform of pyruvate kinase (PKM2), human; also called purified PKM2 antigen
# T1 sequence (P14618 whole entry, canonical isoform): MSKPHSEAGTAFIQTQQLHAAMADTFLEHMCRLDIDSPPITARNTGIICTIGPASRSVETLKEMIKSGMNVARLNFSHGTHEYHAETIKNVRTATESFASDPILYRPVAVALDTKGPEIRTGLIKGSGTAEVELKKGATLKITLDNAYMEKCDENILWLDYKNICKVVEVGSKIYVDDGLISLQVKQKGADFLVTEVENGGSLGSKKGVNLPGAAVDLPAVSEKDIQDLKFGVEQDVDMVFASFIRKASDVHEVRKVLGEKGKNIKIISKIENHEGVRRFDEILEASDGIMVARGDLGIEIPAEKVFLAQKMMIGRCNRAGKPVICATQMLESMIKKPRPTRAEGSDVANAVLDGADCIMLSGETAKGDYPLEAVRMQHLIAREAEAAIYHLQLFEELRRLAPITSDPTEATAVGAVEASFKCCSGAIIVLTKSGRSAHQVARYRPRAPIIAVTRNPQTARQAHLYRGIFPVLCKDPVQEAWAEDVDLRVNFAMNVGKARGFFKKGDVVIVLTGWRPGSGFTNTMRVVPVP
# PKM2 Ag in HCC tissues = target: T2, PKM2 Ag in HCC tissues (Homo sapiens (HCC patient tissue), UniProt P14618); test: immunostaining of cells or tissue; IHC on sections of HCC patient specimens; primary Abs 0.1 mg/mL overnight at 4 °C; goat anti-human IgG-HRP; details: one partner purified
# T2 construct: M2 splice isoform of pyruvate kinase (PKM2), endogenous in human HCC tissue; source: endogenous, surgical specimens from HCC patients (tissue sections)
# T2 sequence (P14618 whole entry, canonical isoform): as above
# [2] = target: T3, PKM2 Ag expressed in HCC cells (HepG2, Huh7) (Homo sapiens (HepG2, Huh7), UniProt P14618); test: flow cytometry on cells; normoxia-cultured HepG2 and Huh7 cells, EDTA-detached, Abs in serum-free medium 1 h at 37 °C; goat anti-human IgG(H+L)-RDM; details: one partner purified
# T3 construct: M2 splice isoform of pyruvate kinase (PKM2), endogenous in human HCC cell lines; living cells were incubated with the antibodies at 37 °C; the antibody is said to internalize; also called expressed PKM2 Ag; source: endogenous, HepG2 and Huh7 cells
# T3 sequence (P14618 whole entry, canonical isoform): as above
binding result [1],binding result (PKM2 Ag in HCC tissues),binding result [2],Binder
binds,binds,,"human full-length H103 Ab (anti-PKM2 antibody, IgG1) (antibody, V domains shown, the first five amino acids were replaced by those of germline IGHV4-4*02; constant region of human IgG1 (from the expression vector pcMV3-H103-H); light chain constant region from the vector pcMV3-H103-L; IgG1; codon optimised; also called parental H103 Ab; parent H103 Ab) VH: QVQLQESGPGLVRPSGTLSLICAVSGDSISSSIWWSWVRQSPGKGLEWIGYIYHNGNTYYNPSLESRVTISVDTSENQFSLKLSSVTAADTAVYYCARGYDSSGYYWTDDRYYFDYWGQGTLVTVSS VL: NFMLTQPHSVSESPGKTVTISCTGSSGSIASNYVQWYQQRPGSAPTTVIYEDNQRPPGVPDRFSGSIDSSSNSASLTISALETEDEADYYCQSYDSRNIDVVFGGGTKVTVL"
binds,binds,binds,"Na2S2O4-cleaved HAP103 Ab (act-HAP103) (antibody, V domains shown, as the VH of m1; constant region of human IgG1, as in m1; as the VL of m1; as the light chain constant region of m1; IgG1; also called act-HAP103 Ab; act-HAP Ab; source: HAP103 Ab incubated with Na2S2O4 in carbonate buffer pH 8.0 at RT for 2 h, ultrafiltration) VH: QVQLQESGPGLVRPSGTLSLICAVSGDSISSSIWWSWVRQSPGKGLEWIGYIYHNGNTYYNPSLESRVTISVDTSENQFSLKLSSVTAADTAVYYCARGYDSSGYYWTDDRYYFDYWGQGTLVTVSS VL: NFMLTQPHSVSESPGKTVTISCTGSSGSIASNYVQWYQQRPGSAPTTVIYEDNQRPPGVPDRFSGSIDSSSNSASLTISALETEDEADYYCQSYDSRNIDVVFGGGTKVTVL"
